# Reference: patent US20100221183A1, “PEPTIDES FOR TREATING AND DIAGNOSING CANCERS AND METHODS FOR USING THE SAME” (priority 2006, published 2010)
# “Also recorded” adds a separate entry of the source. Where no end group is shown, it is not given here. The star is where a group is joined. Biotin = O=C1N[C@H]2[C@H](CS[C@H]2CCCCC(=O)*)N1
# B1: synthetic epitope of Hsc71 (GIPPAPRGVPQIEVTF) (peptide)
# peptide: Biotin-GIPPAPRGVPQIEVTF
# notes: Amino acids 463-478 of Hsc71, synthesized with N-terminal biotin
# B2: PanC (DYWDTSWPLLLFGGGC) (peptide)
# peptide: DYWDTSWPLLLFGGGC
# modifications: also: radiolabeled with 99mTc, site not given here, unlabeled form also used
# notes: also called peptide PanC
# Tests used:
# [1] = test system: prostate cancer (DU-145)
# [2] = test system: lung cancer (NCI-H460)
# [3] = test system: CCD-1070Sk (fibroblasts); test: Cell internalization of fluorescein labeled peptide (fluorescent microscopy); format: cell-based; settings: fibroblasts CCD-1070Sk; 25 μM peptide, one hour at 37C
# Method: (§1) […], DU-145, and CCD-1070Sk were grown in culture as detailed above. Cells were grown on coverslips in 6 well plates. A 25 μM solution of peptide […]-fluorescein (PanF; SEQ ID NO:12) was prepared in modified Eagle's medium. Cell culture media were replaced with 1.6 mL of peptide-containing medium, and the cells were incubated with peptide for one hour at 37C. Medium was removed and cells were washed three times with PBS. Two mL of 2% formaldehyde in PBS was added to each well, and plates were kept on ice for 15 minutes. Cells were washed with cold PBS three times and rinsed with distilled water. Coverslips were mounted with DAPI containing media and viewed with an Olympus BX51 fluorescent microscope and DP70 digital camera with excitation and emission wavelengths of 490 and 520 nm.
# [4] = test system: DU-145 (prostate cancer); test: as above; format: cell-based; settings: prostate cancer DU-145; 25 μM peptide, one hour at 37C
# Method: as §1
# [5] = test system: NCI-H460 (lung cancer); test: as above; format: cell-based; settings: 25 μM peptide, one hour at 37C
# Method: as §1
# [6] = target: T1, Hsp70 (Homo sapiens, UniProt P0DMV8); test: Binding competition between epitope of Hsc71 and Hsp70 for 99m-Tc labeled PanC; settings: various concentrations of epitope, constant 99m-Tc labeled PanC, 1 hour at room temperature
# T1 construct: purchased BioVision, Mountain View, Calif
# T1 sequence (P0DMV8 whole entry): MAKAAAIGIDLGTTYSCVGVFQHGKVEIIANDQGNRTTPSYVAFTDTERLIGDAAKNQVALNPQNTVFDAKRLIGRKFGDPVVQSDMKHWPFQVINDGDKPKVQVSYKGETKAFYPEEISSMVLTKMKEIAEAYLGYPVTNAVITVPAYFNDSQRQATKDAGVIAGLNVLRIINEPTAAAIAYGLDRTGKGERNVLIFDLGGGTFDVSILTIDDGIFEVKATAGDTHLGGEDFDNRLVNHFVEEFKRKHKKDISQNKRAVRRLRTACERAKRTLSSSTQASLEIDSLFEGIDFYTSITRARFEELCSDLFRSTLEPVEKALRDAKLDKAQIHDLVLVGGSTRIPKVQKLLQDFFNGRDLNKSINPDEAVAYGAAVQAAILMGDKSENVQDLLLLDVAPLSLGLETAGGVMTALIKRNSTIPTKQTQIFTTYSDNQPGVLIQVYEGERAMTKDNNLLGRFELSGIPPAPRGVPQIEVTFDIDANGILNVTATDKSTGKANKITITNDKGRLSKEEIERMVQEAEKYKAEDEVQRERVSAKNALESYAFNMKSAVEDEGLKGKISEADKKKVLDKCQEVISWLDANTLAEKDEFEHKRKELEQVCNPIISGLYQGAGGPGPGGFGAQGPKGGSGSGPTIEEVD
# [7] = target: BSA (Bos taurus, UniProt P02769); test: Binding competition control: 99m-Tc labeled PanC on BSA coated wells; settings: various concentrations of epitope, constant 99m-Tc labeled PanC, 1 hour at room temperature
# BSA, sequence (P02769 25-607): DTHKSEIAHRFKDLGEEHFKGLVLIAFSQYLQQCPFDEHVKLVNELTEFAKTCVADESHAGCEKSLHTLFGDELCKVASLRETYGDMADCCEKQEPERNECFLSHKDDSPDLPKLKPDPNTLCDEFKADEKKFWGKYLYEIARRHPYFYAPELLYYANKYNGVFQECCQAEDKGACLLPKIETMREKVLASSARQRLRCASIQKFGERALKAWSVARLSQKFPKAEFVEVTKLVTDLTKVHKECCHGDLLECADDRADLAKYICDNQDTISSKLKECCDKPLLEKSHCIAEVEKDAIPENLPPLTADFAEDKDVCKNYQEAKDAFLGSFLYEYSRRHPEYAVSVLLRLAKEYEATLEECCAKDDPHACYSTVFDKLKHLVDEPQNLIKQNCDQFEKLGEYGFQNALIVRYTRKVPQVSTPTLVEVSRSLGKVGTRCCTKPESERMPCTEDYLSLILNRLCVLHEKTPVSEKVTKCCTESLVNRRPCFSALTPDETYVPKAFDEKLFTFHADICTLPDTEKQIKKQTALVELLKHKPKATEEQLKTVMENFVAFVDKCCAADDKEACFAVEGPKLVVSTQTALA
# [8] = target: B2; test: competition: epitope peptide at various concentrations against Hsp70-coated wells for 99mTc-PanC; competitor Hsp70
# Method: A 96 well plate was prepared by coating each well with Hsp70 (BioVision, Mountain View, Calif.) or BSA (control) by adding 0.5 μg/well in 100 µL of PBS and incubating overnight at 4C. The next day, each well was washed 3× with PBS. […] At the end of incubation, each well was washed 3× with PBS.
# [9] = target: B1; test: 99mTc-PanC (20 nM) with 100 uM biotinylated epitope and unlabeled PanC, Neutravidin bead pull-down, gamma counting
molecule,measurement,setting,value
DYWDTSWPLLLFGGGS(KFAKFAK)3 [PanL],cell death (percent cytotoxicity),[1],dose dependent increase in cell death
same,cell death (percent cytotoxicity),[2],dose dependent increase in cell death
"DYWDTSWPLLLFGGGSK (SEQ ID NO:12; PanF) (Flourescein)-amide (DYWDTSWPLLLFGGGSK-NH2; also: fluorescein label, site not given here)",cellular uptake (internalization) by fluorescent microscopic visualization,[3],significant uptake wasn't seen; also recorded: but not fibroblasts
same,cellular uptake (internalization) by fluorescent microscopic visualization,[4],significant cellular uptake; also recorded: Significant internalization
same,cellular uptake (internalization) by fluorescent microscopic visualization,[5],significant cellular uptake; also recorded: Significant internalization
"GIPPAPRGVPQIEVTF (not fully specified (N-terminus)) [synthetic epitope of Hsc71, Conserved region, amino acids 463-478 of Hsc71]",suppression of PanC binding to Hsp70 by the epitope,[6],suppressed binding of PanC to Hsp70 in a concentration dependent manner
same,suppression of PanC binding to Hsp70 by the epitope,[6]; listed as Hsc71 epitope,interferes with PanC binding to Hsp70 in a concentration dependent manner
same,suppression of PanC binding to albumin (BSA control) by the epitope,[7],suppressed binding of PanC to albumin approximately equally at all concentrations
same,suppression of PanC binding to albumin (BSA control) by the epitope,[7]; listed as Hsc71 epitope,suppresses binding of PanC to BSA approximately equally at all concentrations
B1,binding result,[8],binds
B2,labeled/unlabeled PanC ratio above which binding saturates,[9],> 0.1%
